According to patent US20240116985A1 (published 2024):
One block for each binder: values may come before it. Starred links: 1 amine or outer side, 2 acyl side, 3 side chain; linkers in the order of their positions; H or OH if unused. Positions of bridges follow the written chain, without caps; N, C: chain ends. Non-standard residues stand in square brackets, D forms with d. Primed or numbered codes have the meaning given here. *: point of attachment. PyrS2(3) = (S)-3-amino-1-((pent-4-en-1-yloxy)carbonyl)pyrrolidine-3-carboxylic acid, stapling residue, C=CCCCOC(=O)N1CC[C@@](N[*:1])(C(=O)[*:2])C1; PyrS2″ = (S)-3-amino-1-((pent-4-en-1-yloxy)carbonyl)pyrrolidine-3-carboxylic acid (stapling residue), C=CCCCOC(=O)N1CC[C@@](N[*:1])(C(=O)[*:2])C1; RdN″ = (R)-4-(((allyloxy)carbonyl)(methyl)amino)-2-amino-2-methylbutanoic acid (stapling residue), C=CCOC(=O)N(C)CC[C@@](C)(N[*:1])C(=O)[*:2]; TfeGA = (S)-2-amino-3-((carboxymethyl)(2,2,2-trifluoroethyl)amino)propanoic acid, O=C([C@H](CN(CC(=O)[*:3])CC(F)(F)F)N[*:1])[*:2]; B5(3) = 2,2-bis(4-pentenyl)glycine (stitching residue), C=CCCCC(CCCC=C)(N[*:1])C(=O)[*:2]; B5″ = 2,2-bis(4-pentenyl)glycine, stitching residue, C=CCCCC(CCCC=C)(N[*:1])C(=O)[*:2]; S7 = C[C@@](CCCCCC=[*:3])(N[*:1])C(=O)[*:2]; Phe(2-Cl) = N[C@@H](Cc1ccccc1Cl)C(=O)O; Bta = N[C@@H](Cc1csc2ccccc12)C(=O)O; αAllylPro = C=CC[C@@]1(C(=O)O)CCCN1; tBuAla = CC(C)(C)C[C@H](N)C(=O)O; 3Thi = N[C@@H](Cc1ccsc1)C(=O)O; Alaol = C[C@@H](CO)N*

Assays:
beta-catenin [1] = biological target: T1, beta-catenin (Homo sapiens (Human), UniProt P35222 2-781); experiment: cell-based or functional assay
T1 sequence: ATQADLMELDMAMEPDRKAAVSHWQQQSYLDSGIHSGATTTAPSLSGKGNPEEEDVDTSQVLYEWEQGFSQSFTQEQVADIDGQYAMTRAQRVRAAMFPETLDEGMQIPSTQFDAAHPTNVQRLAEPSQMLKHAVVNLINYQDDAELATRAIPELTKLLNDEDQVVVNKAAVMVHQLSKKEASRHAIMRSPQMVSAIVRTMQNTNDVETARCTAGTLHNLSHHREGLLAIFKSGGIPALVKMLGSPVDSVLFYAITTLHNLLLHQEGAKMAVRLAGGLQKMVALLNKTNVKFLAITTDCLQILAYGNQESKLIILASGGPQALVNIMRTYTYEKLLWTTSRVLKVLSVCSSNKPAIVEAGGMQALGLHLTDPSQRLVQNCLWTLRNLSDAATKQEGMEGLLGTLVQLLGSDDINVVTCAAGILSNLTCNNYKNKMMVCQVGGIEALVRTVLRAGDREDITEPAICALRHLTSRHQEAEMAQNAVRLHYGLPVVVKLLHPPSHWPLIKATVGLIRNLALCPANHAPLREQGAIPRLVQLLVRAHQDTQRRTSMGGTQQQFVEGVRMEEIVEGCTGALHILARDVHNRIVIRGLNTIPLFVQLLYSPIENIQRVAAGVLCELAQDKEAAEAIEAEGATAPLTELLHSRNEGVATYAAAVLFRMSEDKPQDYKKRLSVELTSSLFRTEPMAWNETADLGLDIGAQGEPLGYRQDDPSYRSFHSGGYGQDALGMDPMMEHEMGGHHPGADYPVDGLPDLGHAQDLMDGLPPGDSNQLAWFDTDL

[2] = biological target: T2, full-length beta-Catenin (Uniprot ID P35222) (Homo sapiens (Human), UniProt P35222 2-781); experiment: AlphaScreen competition vs biotin-TCF4(10-53) on full-length beta-catenin
T2 construct: The assay text says 'full-length'; also called B-Catenin; bCat
T2 sequence: T1 sequence
Method: Equal volume of the titrated peptide was added to the plate and incubated for 15 minutes at 20° C. Then 4 uL of donor and 4 uL acceptor beads at 10 ug/mL were added to the plate, for a 16 uL reaction pool and protected from light for 60 minutes at 20° C. prior to read. Reads were performed on a CLARIOstar plate reader (BMG Labtech) in duplicate, and data were fitted to a 1:1 binding model with hill slope using an in-house script. All provided concentrations are final concentrations.

beta-catenin [3] = biological target: T3, beta-catenin (Homo sapiens (Human), UniProt P35222 1-781); experiment: cell-based or functional assay
T3 sequence: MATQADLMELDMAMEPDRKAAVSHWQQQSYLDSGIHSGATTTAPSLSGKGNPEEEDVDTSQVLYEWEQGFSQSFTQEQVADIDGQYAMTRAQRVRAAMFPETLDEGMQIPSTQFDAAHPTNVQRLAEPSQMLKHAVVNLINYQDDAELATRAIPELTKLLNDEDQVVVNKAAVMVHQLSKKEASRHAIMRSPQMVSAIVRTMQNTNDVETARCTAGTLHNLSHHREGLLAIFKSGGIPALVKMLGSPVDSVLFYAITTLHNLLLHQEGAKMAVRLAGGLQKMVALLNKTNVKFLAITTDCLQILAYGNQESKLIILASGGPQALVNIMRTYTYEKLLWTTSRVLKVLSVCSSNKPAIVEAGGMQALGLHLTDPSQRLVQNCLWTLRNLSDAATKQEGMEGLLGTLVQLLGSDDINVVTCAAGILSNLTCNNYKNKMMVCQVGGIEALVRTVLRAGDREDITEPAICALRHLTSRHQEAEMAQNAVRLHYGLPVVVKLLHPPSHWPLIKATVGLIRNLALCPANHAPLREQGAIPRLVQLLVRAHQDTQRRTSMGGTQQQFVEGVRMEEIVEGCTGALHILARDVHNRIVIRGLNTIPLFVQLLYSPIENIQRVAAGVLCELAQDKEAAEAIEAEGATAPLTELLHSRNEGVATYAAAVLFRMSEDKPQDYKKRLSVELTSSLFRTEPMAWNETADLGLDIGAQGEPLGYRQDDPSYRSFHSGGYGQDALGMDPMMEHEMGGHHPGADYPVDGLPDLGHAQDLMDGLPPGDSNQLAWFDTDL

DLD1 TCF c2 BrightGlo % Inhibition (TCF/LEF luciferase reporter; 0.625 uM by plate map, replicate 1) (beta-catenin [1]): 9.2%
DLD1 TCF c2 BrightGlo % Inhibition (TCF/LEF luciferase reporter; 0.625 uM by plate map, replicate 2) (beta-catenin [1]): 7.1%
DLD1 TCF c2 BrightGlo % Inhibition (TCF/LEF luciferase reporter; 0.625 uM by plate map, replicate 3) (beta-catenin [1]): 11.5%
DLD1 TCF c2 BrightGlo % Inhibition (TCF/LEF luciferase reporter; 1.25 uM by plate map, replicate 1) (beta-catenin [1]): 0.8%
DLD1 TCF c2 BrightGlo % Inhibition (TCF/LEF luciferase reporter; 1.25 uM by plate map, replicate 2) (beta-catenin [1]): 2.4%
DLD1 TCF c2 BrightGlo % Inhibition (TCF/LEF luciferase reporter; 1.25 uM by plate map, replicate 3) (beta-catenin [1]): 5.4%
DLD1 TCF c2 BrightGlo % Inhibition (TCF/LEF luciferase reporter; 2.5 uM by plate map, replicate 1) (beta-catenin [1]): 4.5%
DLD1 TCF c2 BrightGlo % Inhibition (TCF/LEF luciferase reporter; 2.5 uM by plate map, replicate 2) (beta-catenin [1]): 7.9%
DLD1 TCF c2 BrightGlo % Inhibition (TCF/LEF luciferase reporter; 2.5 uM by plate map, replicate 3) (beta-catenin [1]): 15.2%
DLD1 TCF c2 BrightGlo % Inhibition (TCF/LEF luciferase reporter; 5 uM by plate map, replicate 1) (beta-catenin [1]): 17.5%
DLD1 TCF c2 BrightGlo % Inhibition (TCF/LEF luciferase reporter; 5 uM by plate map, replicate 2) (beta-catenin [1]): 23.8%
DLD1 TCF c2 BrightGlo % Inhibition (TCF/LEF luciferase reporter; 5 uM by plate map, replicate 3) (beta-catenin [1]): 31%
DLD1 TCF c2 BrightGlo % Inhibition (TCF/LEF luciferase reporter; 10 uM by plate map, replicate 1) (beta-catenin [1]): 45.6%
DLD1 TCF c2 BrightGlo % Inhibition (TCF/LEF luciferase reporter; 10 uM by plate map, replicate 2) (beta-catenin [1]): 49.8%
DLD1 TCF c2 BrightGlo % Inhibition (TCF/LEF luciferase reporter; 10 uM by plate map, replicate 3) (beta-catenin [1]): 55.3%
DLD1 TCF c2 BrightGlo % Inhibition (TCF/LEF luciferase reporter; 20 uM by plate map, replicate 1) (beta-catenin [1]): 67.2%
DLD1 TCF c2 BrightGlo % Inhibition (TCF/LEF luciferase reporter; 20 uM by plate map, replicate 2) (beta-catenin [1]): 69.3%
DLD1 TCF c2 BrightGlo % Inhibition (TCF/LEF luciferase reporter; 20 uM by plate map, replicate 3) (beta-catenin [1]): 72.3%
B1: I-1081 (peptide)
peptide: Ac-[αAllylPro]D[tBuAla][B5(3)]DDAAFN[PyrS2″][Phe(2-Cl)][Bta]-Alaol
modifications: staple 1-4, 4-11

EC50 [2]: ≥ 10 µM
B2: I-1 (peptide)
peptide: Ac-FDA[RdN″]DDAAFV[S7]FWQ-NH2
modifications: staple 4-11
notes: Stapled peptide composition

DLD1 TCF c2 BrightGlo % Inhibition, 0.625 uM, replicate 1 (beta-catenin [3]): -1.5%
DLD1 TCF c2 BrightGlo % Inhibition, 0.625 uM, replicate 2 (beta-catenin [3]): 9.3%
DLD1 TCF c2 BrightGlo % Inhibition, 0.625 uM, replicate 3 (beta-catenin [3]): 4.5%
DLD1 TCF c2 BrightGlo % Inhibition, 1.25 uM, replicate 1 (beta-catenin [3]): -7%
DLD1 TCF c2 BrightGlo % Inhibition, 1.25 uM, replicate 2 (beta-catenin [3]): -2.8%
DLD1 TCF c2 BrightGlo % Inhibition, 1.25 uM, replicate 3 (beta-catenin [3]): 6.1%
DLD1 TCF c2 BrightGlo % Inhibition, 2.5 uM, replicate 1 (beta-catenin [3]): -8%
DLD1 TCF c2 BrightGlo % Inhibition, 2.5 uM, replicate 2 (beta-catenin [3]): -7.6%
DLD1 TCF c2 BrightGlo % Inhibition, 2.5 uM, replicate 3 (beta-catenin [3]): -5%
DLD1 TCF c2 BrightGlo % Inhibition, 5 uM, replicate 1 (beta-catenin [3]): -6.7%
DLD1 TCF c2 BrightGlo % Inhibition, 5 uM, replicate 2 (beta-catenin [3]): -6.7%
DLD1 TCF c2 BrightGlo % Inhibition, 5 uM, replicate 3 (beta-catenin [3]): -0.7%
DLD1 TCF c2 BrightGlo % Inhibition, 10 uM, replicate 1 (beta-catenin [3]): -3.6%
DLD1 TCF c2 BrightGlo % Inhibition, 10 uM, replicate 2 (beta-catenin [3]): -4.8%
DLD1 TCF c2 BrightGlo % Inhibition, 10 uM, replicate 3 (beta-catenin [3]): -7.4%
DLD1 TCF c2 BrightGlo % Inhibition, 20 uM, replicate 1 (beta-catenin [3]): -1.2%
DLD1 TCF c2 BrightGlo % Inhibition, 20 uM, replicate 2 (beta-catenin [3]): 7.5%
DLD1 TCF c2 BrightGlo % Inhibition, 20 uM, replicate 3 (beta-catenin [3]): 3.5%
B3: I-1001 (peptide)
peptide: Ac-[αAllylPro]D[tBuAla][B5(3)][3Thi][TfeGA]AAFN[PyrS2″]D[Bta]Q-NH2
modifications: staple 1-4, 4-11

DLD1 TCF c2 BrightGlo % Inhibition, 0.625 uM, replicate 1 (beta-catenin [3]): 14.5%
DLD1 TCF c2 BrightGlo % Inhibition, 0.625 uM, replicate 2 (beta-catenin [3]): 18.6%
DLD1 TCF c2 BrightGlo % Inhibition, 0.625 uM, replicate 3 (beta-catenin [3]): 9.3%
DLD1 TCF c2 BrightGlo % Inhibition, 1.25 uM, replicate 1 (beta-catenin [3]): 12.9%
DLD1 TCF c2 BrightGlo % Inhibition, 1.25 uM, replicate 2 (beta-catenin [3]): 16.9%
DLD1 TCF c2 BrightGlo % Inhibition, 1.25 uM, replicate 3 (beta-catenin [3]): 5.5%
DLD1 TCF c2 BrightGlo % Inhibition, 2.5 uM, replicate 1 (beta-catenin [3]): 12.9%
DLD1 TCF c2 BrightGlo % Inhibition, 2.5 uM, replicate 2 (beta-catenin [3]): 17.4%
DLD1 TCF c2 BrightGlo % Inhibition, 2.5 uM, replicate 3 (beta-catenin [3]): 11.9%
DLD1 TCF c2 BrightGlo % Inhibition, 5 uM, replicate 1 (beta-catenin [3]): 28.2%
DLD1 TCF c2 BrightGlo % Inhibition, 5 uM, replicate 2 (beta-catenin [3]): 45.2%
DLD1 TCF c2 BrightGlo % Inhibition, 5 uM, replicate 3 (beta-catenin [3]): 44.6%
DLD1 TCF c2 BrightGlo % Inhibition, 10 uM, replicate 1 (beta-catenin [3]): 56.8%
DLD1 TCF c2 BrightGlo % Inhibition, 10 uM, replicate 2 (beta-catenin [3]): 70.2%
DLD1 TCF c2 BrightGlo % Inhibition, 10 uM, replicate 3 (beta-catenin [3]): 65.6%
DLD1 TCF c2 BrightGlo % Inhibition, 20 uM, replicate 1 (beta-catenin [3]): 75.7%
DLD1 TCF c2 BrightGlo % Inhibition, 20 uM, replicate 2 (beta-catenin [3]): 81.9%
DLD1 TCF c2 BrightGlo % Inhibition, 20 uM, replicate 3 (beta-catenin [3]): 78.7%
B4: I-762 (peptide)
peptide: Ac-[αAllylPro]D[tBuAla][B5″]D[TfeGA]AAFN[PyrS2(3)][3Thi][Bta]Q-NH2
modifications: staple 1-4, 4-11
